Test results published in patent US20260265381A1 (Hoffmann-La Roche, published 2026).

B1: P1AF7977 (HLA-G-0090-VL-S32P/CD3 P035-093 (P035)) (bispecific antibody, human IgG1, kappa, L234A L235A)
light 1: EVQLLESGGGLVQPGGSLRLSCAASGFTFSSYAMNWVRQAPGKGLEWVSRIRSKYNNYATYYADSVKGRFTISRDDSKNTLYLQMNSLRAEDTAVYYCVRASNFPASYVSYFAYWGQGTLVTVSSASVAAPSVFIFPPSDEQLKSGTASVVCLLNNFYPREAKVQWKVDNALQSGNSQESVTEQDSKDSTYSLSSTLTLSKADYEKHKVYACEVTHQGLSSPVTKSFNRGEC
light 2: not shown
heavy 1: QVQLQQSGPGLLKPSQTLSLTCAISGDSVSSNRAAWNWIRQSPSRGLEWLGRTYYRSKWYNDYAVSVQGRITLIPDTSKNQFSLRLNSVTPEDTAVYYCASVRAVAPFDYWGQGVLVTVSSASTKGPSVFPLAPSSKSTSGGTAALGCLVEDYFPEPVTVSWNSGALTSGVHTFPAVLQSSGLYSLSSVVTVPSSSLGTQTYICNVNHKPSNTKVDEKVEPKSCDKTHTCPPCPAPEAAGGPSVFLFPPKPKDTLMISRTPEVTCVVVDVSHEDPEVKFNWYVDGVEVHNAKTKPREEQYNSTYRVVSVLTVLHQDWLNGKEYKCKVSNKALGAPIEKTISKAKGQPREPQVCTLPPSRDELTKNQVSLSCAVKGFYPSDIAVEWESNGQPENNYKTTPPVLDSDGSFFLVSKLTVDKSRWQQGNVFSCSVMHEALHNHYTQKSLSLSP
heavy 2: not shown
notes: 2+1 T cell bispecific: light chain 1 is the crossed VH(CD3)-CL chain, light chain 2 the HLA-G light chain (two copies, CLM-00046); also called HLA-G TCB
B2: P1AF7979 (HLA-G-0090-VL-S32P/CD3 V9) (bispecific antibody, human IgG1, kappa, L234A L235A)
light 1: EVQLVESGGGLVQPGGSLRLSCAASGYSFTGYTMNWVRQAPGKGLEWVALINPYKGVSTYNQKFKDRFTISVDKSKNTAYLQMNSLRAEDTAVYYCARSGYYGDSDWYFDVWGQGTLVTVSSASVAAPSVFIFPPSDEQLKSGTASVVCLLNNFYPREAKVQWKVDNALQSGNSQESVTEQDSKDSTYSLSSTLTLSKADYEKHKVYACEVTHQGLSSPVTKSFNRGEC
light 2: not shown
heavy 1: QVQLQQSGPGLLKPSQTLSLTCAISGDSVSSNRAAWNWIRQSPSRGLEWLGRTYYRSKWYNDYAVSVQGRITLIPDTSKNQFSLRLNSVTPEDTAVYYCASVRAVAPFDYWGQGVLVTVSSASTKGPSVFPLAPSSKSTSGGTAALGCLVEDYFPEPVTVSWNSGALTSGVHTFPAVLQSSGLYSLSSVVTVPSSSLGTQTYICNVNHKPSNTKVDEKVEPKSCDKTHTCPPCPAPEAAGGPSVFLFPPKPKDTLMISRTPEVTCVVVDVSHEDPEVKFNWYVDGVEVHNAKTKPREEQYNSTYRVVSVLTVLHQDWLNGKEYKCKVSNKALGAPIEKTISKAKGQPREPQVCTLPPSRDELTKNQVSLSCAVKGFYPSDIAVEWESNGQPENNYKTTPPVLDSDGSFFLVSKLTVDKSRWQQGNVFSCSVMHEALHNHYTQKSLSLSP
heavy 2: not shown
notes: as for B1
B3: P1AF7978 (HLA-G-0090-VL-S32P/CD3 Clone 22 (Cl22)) (bispecific antibody, human IgG1, kappa, L234A L235A)
light 1: EVQLLESGGGLVQPGGSLRLSCAASGFQFSSYAMNWVRQAPGKGLEWVSRIRSKYNNYATYYADSVKGRFTISRDDSKNTLYLQMNSLRAEDTAVYYCVRHTTFPSSYVSYYGYWGQGTLVTVSSASVAAPSVFIFPPSDEQLKSGTASVVCLLNNFYPREAKVQWKVDNALQSGNSQESVTEQDSKDSTYSLSSTLTLSKADYEKHKVYACEVTHQGLSSPVTKSFNRGEC
light 2: not shown
heavy 1: QVQLQQSGPGLLKPSQTLSLTCAISGDSVSSNRAAWNWIRQSPSRGLEWLGRTYYRSKWYNDYAVSVQGRITLIPDTSKNQFSLRLNSVTPEDTAVYYCASVRAVAPFDYWGQGVLVTVSSASTKGPSVFPLAPSSKSTSGGTAALGCLVEDYFPEPVTVSWNSGALTSGVHTFPAVLQSSGLYSLSSVVTVPSSSLGTQTYICNVNHKPSNTKVDEKVEPKSCDKTHTCPPCPAPEAAGGPSVFLFPPKPKDTLMISRTPEVTCVVVDVSHEDPEVKFNWYVDGVEVHNAKTKPREEQYNSTYRVVSVLTVLHQDWLNGKEYKCKVSNKALGAPIEKTISKAKGQPREPQVCTLPPSRDELTKNQVSLSCAVKGFYPSDIAVEWESNGQPENNYKTTPPVLDSDGSFFLVSKLTVDKSRWQQGNVFSCSVMHEALHNHYTQKSLSLSP
heavy 2: not shown
notes: 2+1 T cell bispecific: light chain 1 is the crossed VH(CD3)-CL chain, light chain 2 the HLA-G light chain (two copies, CLM-00046); also called HLA-G-0090-VL-S32P/CD3 Cl22; HLA-G TCB
B4: HLA-G-0090-VL-N31D (antibody, IgG1, V domains shown)
VH: QVQLQQSGPGLLKPSQTLSLTCAISGDSVSSNRAAWNWIRQSPSRGLEWLGRTYYRSKWYNDYAVSVQGRITLIPDTSKNQFSLRLNSVTPEDTAVYYCASVRAVAPFDYWGQGVLVTVSS
VL: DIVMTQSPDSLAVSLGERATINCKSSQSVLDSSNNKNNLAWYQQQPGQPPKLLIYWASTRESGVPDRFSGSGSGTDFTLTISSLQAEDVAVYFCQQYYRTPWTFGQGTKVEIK
notes: also called HLA-G-0090-N31D
B5: HLA-G-0090-VL-N31S (antibody, IgG1, V domains shown)
VH: QVQLQQSGPGLLKPSQTLSLTCAISGDSVSSNRAAWNWIRQSPSRGLEWLGRTYYRSKWYNDYAVSVQGRITLIPDTSKNQFSLRLNSVTPEDTAVYYCASVRAVAPFDYWGQGVLVTVSS
VL: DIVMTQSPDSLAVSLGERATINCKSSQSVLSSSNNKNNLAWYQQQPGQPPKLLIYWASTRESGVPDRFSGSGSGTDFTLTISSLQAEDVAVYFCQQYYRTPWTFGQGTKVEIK
notes: also called HLA-G-0090-N31S
B6: HLA-G-0090-VL-N31Y-N38Y (antibody, IgG1, V domains shown)
VH: QVQLQQSGPGLLKPSQTLSLTCAISGDSVSSNRAAWNWIRQSPSRGLEWLGRTYYRSKWYNDYAVSVQGRITLIPDTSKNQFSLRLNSVTPEDTAVYYCASVRAVAPFDYWGQGVLVTVSS
VL: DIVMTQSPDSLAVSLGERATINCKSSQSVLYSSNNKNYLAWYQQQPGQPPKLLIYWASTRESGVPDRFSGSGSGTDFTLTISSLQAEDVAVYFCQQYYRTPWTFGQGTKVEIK
notes: also called HLA-G-0090-VL-N31Y-N38Y-GL; HLA-G-0090-N31Y-N38Y
B7: HLA-G-0090-VL-N31T (antibody, IgG1, V domains shown)
VH: QVQLQQSGPGLLKPSQTLSLTCAISGDSVSSNRAAWNWIRQSPSRGLEWLGRTYYRSKWYNDYAVSVQGRITLIPDTSKNQFSLRLNSVTPEDTAVYYCASVRAVAPFDYWGQGVLVTVSS
VL: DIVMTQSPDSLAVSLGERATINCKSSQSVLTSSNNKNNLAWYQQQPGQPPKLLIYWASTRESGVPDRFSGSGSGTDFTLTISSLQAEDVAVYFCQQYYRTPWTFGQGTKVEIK
notes: also called HLA-G-0090-N31T
B8: HLA-G-0090-VL-N31Y (antibody, IgG1, V domains shown)
VH: QVQLQQSGPGLLKPSQTLSLTCAISGDSVSSNRAAWNWIRQSPSRGLEWLGRTYYRSKWYNDYAVSVQGRITLIPDTSKNQFSLRLNSVTPEDTAVYYCASVRAVAPFDYWGQGVLVTVSS
VL: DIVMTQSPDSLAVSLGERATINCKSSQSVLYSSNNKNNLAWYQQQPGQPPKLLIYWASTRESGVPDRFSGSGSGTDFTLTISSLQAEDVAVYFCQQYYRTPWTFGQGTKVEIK
notes: also called HLA-G-0090-N31Y
B9: HLA-G-0090-VL-N31L (antibody, IgG1, V domains shown)
VH: QVQLQQSGPGLLKPSQTLSLTCAISGDSVSSNRAAWNWIRQSPSRGLEWLGRTYYRSKWYNDYAVSVQGRITLIPDTSKNQFSLRLNSVTPEDTAVYYCASVRAVAPFDYWGQGVLVTVSS
VL: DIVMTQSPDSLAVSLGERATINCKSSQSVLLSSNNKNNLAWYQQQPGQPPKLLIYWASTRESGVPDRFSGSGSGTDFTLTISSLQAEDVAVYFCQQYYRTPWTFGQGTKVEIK
notes: also called HLA-G-0090-N31L
B10: HLA-G-0090-VL-N31Q (antibody, IgG1, V domains shown)
VH: QVQLQQSGPGLLKPSQTLSLTCAISGDSVSSNRAAWNWIRQSPSRGLEWLGRTYYRSKWYNDYAVSVQGRITLIPDTSKNQFSLRLNSVTPEDTAVYYCASVRAVAPFDYWGQGVLVTVSS
VL: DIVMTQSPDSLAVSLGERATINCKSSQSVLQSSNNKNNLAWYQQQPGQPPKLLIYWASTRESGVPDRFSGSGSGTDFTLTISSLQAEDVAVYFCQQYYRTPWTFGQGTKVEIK
notes: also called HLA-G-0090-N31Q

Key:
[1] = biological target: T1, human HLA-G expressed on cells (JEG3 cells, natural; SKOV3 cells transfected with recombinant HLA-G) (human, UniProt P17693 25-338); test: cell-based or functional assay
[2] = biological target: T1, human HLA-G expressed on cells (JEG3 …); test: flow cytometry, cell binding on JEG3 cells
[3] = biological target: T1, human HLA-G expressed on cells (JEG3 …); test: cell-based or functional assay; remark: listed apart in the source
[4] = biological target: T1, human HLA-G expressed on cells (JEG3 …); test: flow cytometry, cell binding on SKOV3 HLA-G cells
[5] = biological target: T2, human CD3 expressed on cells (Jurkat NFAT reporter cells; human T cells isolated from PBMCs) (human, UniProt P07766 23-207); test: flow cytometry on human T cells isolated from PBMCs; detection with Alexa Fluor 488 anti-human IgG
T2 construct: on cells it is part of the CD3/TCR complex; also called CD3 on Jurkat cells; CD3 expressed on T-cells

[6] = biological target: T3, recombinant single-chain HLA-G monomer/human HLA-G β2M MHC class I complex (human); test: SPR single cycle kinetics (Biacore T200, 25 C); antibody captured via Fc on CM3 chip, HLA-G complex as analyte
T3 construct: also called wt-HLA-G complex; wt-HLA-G antigen

T2 sequence (P07766 23-207 limits assumed): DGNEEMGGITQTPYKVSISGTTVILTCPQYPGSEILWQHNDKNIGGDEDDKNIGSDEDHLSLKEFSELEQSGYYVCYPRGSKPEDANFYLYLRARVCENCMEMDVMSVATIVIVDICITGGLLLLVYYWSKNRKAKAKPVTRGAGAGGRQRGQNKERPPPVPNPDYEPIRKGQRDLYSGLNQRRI

Binder	T cell mediated cytotoxicity induction EC50 (nM), JEG3 (Caspase 8 activation) [1]	T cell mediated cytotoxicity induction EC50 (nM), SKOV3 HLA-G (Caspase 8 activation) [1]	EC50 [2]	IFNgamma induction EC50 (nM), JEG3 [3]	IFNgamma induction EC50 (nM), SKOV3 HLA-G [3]	EC50 [4]	binding result [5]	Kd [6]	koff [6]	kon [6]	t½ [6]
B1	12 nM	1.4 nM	0.42 nM	20 nM	30 nM	1.5 nM	binds				
B2	4.6 nM	1 nM	0.36 nM	29 nM	16 nM	0.58 nM	binds				
B3	2.6 nM	1.36 nM	0.12 nM	2.2 nM	2.6 nM	0.15 nM	binds				
B4								20.2 nM	0.00391 s⁻¹	194000 M⁻¹ s⁻¹	177 s
B5								2.4 nM	0.000922 s⁻¹	383000 M⁻¹ s⁻¹	752 s
B6								23.6 nM			0 s
B7								2.3 nM	0.000769 s⁻¹	342000 M⁻¹ s⁻¹	902 s
B8								2 nM	0.00107 s⁻¹	549000 M⁻¹ s⁻¹	646 s
B9								1.7 nM	0.00871 s⁻¹	5.28e+06 M⁻¹ s⁻¹	79.6 s
B10								2 nM	0.00373 s⁻¹	1.91e+06 M⁻¹ s⁻¹	186 s
